Columns and labels:
[1] = molecular target: T1, High mobility group box 1 (HMGB1) (UniProt P63158 1-215); experiment: pull-down from 2B4 cell lysate, immunoblot with anti-HMGB1
T1 sequence (looked up): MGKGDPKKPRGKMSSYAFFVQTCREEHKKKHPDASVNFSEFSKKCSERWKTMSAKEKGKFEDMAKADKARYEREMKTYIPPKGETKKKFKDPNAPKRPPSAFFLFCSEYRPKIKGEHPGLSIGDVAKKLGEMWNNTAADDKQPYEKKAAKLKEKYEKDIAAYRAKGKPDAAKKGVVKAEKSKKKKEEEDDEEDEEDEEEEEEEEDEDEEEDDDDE

[2] = molecular target: damaged-DNA binding protein 1 (DDB1) (UniProt Q3U1J4 2-1140); experiment: pull-down from 2B4 dead cell lysate, immunoblot with anti-DDB1
damaged-DNA binding protein 1 (DDB1), sequence (Q3U1J4 2-1140 limits assumed): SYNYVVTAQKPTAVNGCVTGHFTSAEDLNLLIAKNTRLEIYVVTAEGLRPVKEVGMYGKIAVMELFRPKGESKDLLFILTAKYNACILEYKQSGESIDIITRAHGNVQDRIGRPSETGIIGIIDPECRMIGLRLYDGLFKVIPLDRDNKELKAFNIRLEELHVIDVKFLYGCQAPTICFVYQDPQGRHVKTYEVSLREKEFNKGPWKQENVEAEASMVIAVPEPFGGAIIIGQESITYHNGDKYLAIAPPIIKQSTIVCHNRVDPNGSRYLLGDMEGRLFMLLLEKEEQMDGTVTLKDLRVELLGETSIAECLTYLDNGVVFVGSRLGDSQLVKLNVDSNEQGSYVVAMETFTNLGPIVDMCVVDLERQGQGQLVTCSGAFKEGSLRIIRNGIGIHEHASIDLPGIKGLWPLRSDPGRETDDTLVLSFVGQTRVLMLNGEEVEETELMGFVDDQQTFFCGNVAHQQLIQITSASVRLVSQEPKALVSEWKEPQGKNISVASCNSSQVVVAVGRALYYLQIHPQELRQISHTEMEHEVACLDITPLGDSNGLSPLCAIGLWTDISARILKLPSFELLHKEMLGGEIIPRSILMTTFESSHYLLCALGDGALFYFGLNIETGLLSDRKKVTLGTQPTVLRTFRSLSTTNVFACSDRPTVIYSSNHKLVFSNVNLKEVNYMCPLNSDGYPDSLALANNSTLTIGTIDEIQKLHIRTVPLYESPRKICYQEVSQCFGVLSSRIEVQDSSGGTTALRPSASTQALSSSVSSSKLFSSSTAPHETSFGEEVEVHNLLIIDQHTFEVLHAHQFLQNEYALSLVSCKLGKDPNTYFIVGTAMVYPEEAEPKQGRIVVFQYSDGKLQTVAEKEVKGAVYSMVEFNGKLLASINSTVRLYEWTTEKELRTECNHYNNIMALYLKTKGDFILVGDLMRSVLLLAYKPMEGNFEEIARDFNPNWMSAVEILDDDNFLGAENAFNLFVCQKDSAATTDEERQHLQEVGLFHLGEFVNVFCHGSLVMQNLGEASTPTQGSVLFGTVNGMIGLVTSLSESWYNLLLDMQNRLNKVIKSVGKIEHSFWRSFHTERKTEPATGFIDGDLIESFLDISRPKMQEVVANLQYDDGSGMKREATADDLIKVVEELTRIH

[3] = molecular target: T2, hIgG1 Fc (Ig) (human, UniProt P01857-1 99-330 = IgG part, limits assumed); experiment: pull-down from 2B4 dead cell lysate with Ig on Protein G Sepharose, silver staining, no Ca2+
T2 construct: domain: hIgG1 Fc; Control for Ig-Mincle; also called control Ig

[4] = molecular target: T3, mouse Mincle (Macrophage inducible C-type lectin) (mouse, UniProt Q9R0Q8 1-214); experiment: immunoprecipitation with anti-Mincle polyclonal antibody from macrophage lysate, anti-FcRγ blot
T3 construct: whole, on cells; Expressed from cDNA in 293T, 2B4 and RBL-2H3 cells, or endogenous in mouse peritoneal macrophages; also called Clec4e; Clecsf9
T3 sequence (looked up): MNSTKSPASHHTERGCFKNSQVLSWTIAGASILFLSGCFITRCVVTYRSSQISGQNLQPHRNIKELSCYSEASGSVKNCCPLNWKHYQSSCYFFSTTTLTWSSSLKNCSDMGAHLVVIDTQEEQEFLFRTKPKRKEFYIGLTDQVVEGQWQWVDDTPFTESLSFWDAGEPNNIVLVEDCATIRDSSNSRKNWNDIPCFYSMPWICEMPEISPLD

B1: hIgG1 Fc-Mincle fusion protein (Ig-Mincle) (Fc fusion, mouse, UniProt Q9R0Q8 46-214, looked up)
chain: TYRSSQISGQNLQPHRNIKELSCYSEASGSVKNCCPLNWKHYQSSCYFFSTTTLTWSSSLKNCSDMGAHLVVIDTQEEQEFLFRTKPKRKEFYIGLTDQVVEGQWQWVDDTPFTESLSFWDAGEPNNIVLVEDCATIRDSSNSRKNWNDIPCFYSMPWICEMPEISPLD
notes: range 46-214; also called soluble Mincle protein; not shown: human IgG1 Fc region (hIgG Fc lacking a termination codon, from pME18S-SLAMsig-hIgG Fc)
[1]
  binding result: no binding
[2]
  binding result: no binding

B2: spliceosome-binding protein 130 (SAP130) from 2B4 cell lysate (ligand, UniProt Q921M3 1-1217, looked up)
chain: MFLYNLTLQRATGISFAIHGNFSGTKQQEIVVSRGKILELLRPDPNTGKVHTLLTVEVFGVIRSLMAFRLTGGTKDYIVVGSDSGRIVILEYQPSKNMFEKIHQETFGKSGCRRIVPGQFLAVDPKGRAVMISAIEKQKLVYILNRDAAARLTISSPLEAHKANTLVYHVVGVDVGFENPMFACLEMDYEEADNDPTGEAAANTQQTLTFYELDLGLNHVVRKYSEPLEEHGNFLITVPGGSDGPSGVLICSENYITYKNFGDQPDIRCPIPRRRNDLDDPERGMIFVCSATHKTKSMFFFLAQTEQGDIFKITLETDEDMVTEIRLKYFDTVPVAAAMCVLKTGFLFVASEFGNHYLYQIAHLGDDDEEPEFSSAMPLEEGDTFFFQPRPLKNLVLVDELDSLSPILFCQIADLANEDTPQLYVACGRGPRSSLRVLRHGLEVSEMAVSELPGNPNAVWTVRRHIEDEFDAYIIVSFVNATLVLSIGETVEEVTDSGFLGTTPTLSCSLLGDDALVQVYPDGIRHIRADKRVNEWKTPGKKTIVKCAVNQRQVVIALTGGELVYFEMDPSGQLNEYTERKEMSADVVCMSLANVPPGEQRSRFLAVGLVDNTVRIISLDPSDCLQPLSMQALPAQPESLCIVEMGGTEKQDELGERGSIGFLYLNIGLQNGVLLRTVLDPVTGDLSDTRTRYLGSRPVKLFRVRMQGQEAVLAMSSRSWLSYSYQSRFHLTPLSYETLEFASGFASEQCPEGIVAISTNTLRILALEKLGAVFNQVAFPLQYTPRKFVIHPESNNLIIIETDHNAYTEATKAQRKQQMAEEMVEAAGEDERELAAEMAAAFLNENLPESIFGAPKAGNGQWASVIRVMNPIQGNTLDLVQLEQNEAAFSVAVCRFSNTGEDWYVLVGVAKDLILSPRSVAGGFVYTYKLVNNGEKLEFLHKTPVEEVPAAIAPFQGRVLIGVGKLLRVYDLGKKKLLRKCENKHIANYISGIQTIGHRVIVSDVQESFIWVRYKRNENQLIIFADDTYPRWVTTASLLDYDTVAGADKFGNICVVRLPPNTNDEVDEDPTGNKALWDRGLLNGASQKAEVIMNYHVGETVLSLQKTTLIPGGSESLVYTTLSGGIGILVPFTSHEDHDFFQHVEMHLRSEHPPLCGRDHLSFRSYYFPVKNVIDGDLCEQFNSMEPNKQKNVSEELDRTPPEVSKKLEDIRTRYAF
notes: also called Sf3b3; 130-kD protein
[3]
  binding result: no binding

B3: endogenous FcRγ of mouse peritoneal macrophages (receptor, UniProt P20491 19-86, looked up)
chain: LGEPQLCYILDAVLFLYGIVLTLLYCRLKIQVRKAAIASREKADAVYTGLNTRSQETYETLKHEKPPQ
notes: whole, on cells; Co-immunoprecipitated from the lysate of thioglycolate-induced, LPS-stimulated peritoneal macrophages
[4]
  binding result: binds
